Values quoted from earlier work as cited in article PMC2883863.

Target: Cys36 (UniProt position 73, FWTPWCPFCNA)
Conditions: not stated (quoted literature value for Mtb DsbE)

Q: Which pKa does the source give for “Disulfide bond forming protein DsbE (Mtb DsbE, Rv2878c, MPT53) (Mycobacterium tuberculosis)” here?
A: 5.35 ± 0.2
